Laboratory results taken from US20140087995A1 (published 2014).
Values belong to the binder of their own block, whether it stands above or below them. Numbered stars: 1 amine (or outer) side, 2 acyl side, 3 side chain; on linkers, the order of the positions; unused ones are H or OH. Bridge positions count the residues as written; N and C are the ends. * marks the point of attachment. C20 diacid = O=C(O)CCCCCCCCCCCCCCCCCCC(=O)*; γGlu = O=C(O)[C@H](CCC(=O)[*:2])N[*:1]

How the values were obtained:
rat calcitonin receptor [1] = molecular target: T1, rat calcitonin receptor (rat, UniProt P32214 25-516); test: ratio IC50 rat calcitonin receptor / IC50 rat amylin receptor (Assays VIII and VI)
T1 construct: whole, on cells; Used as membranes prepared from the transfected cells; also called rCTR; rat calcitonin (a) receptor
T1 sequence (looked up): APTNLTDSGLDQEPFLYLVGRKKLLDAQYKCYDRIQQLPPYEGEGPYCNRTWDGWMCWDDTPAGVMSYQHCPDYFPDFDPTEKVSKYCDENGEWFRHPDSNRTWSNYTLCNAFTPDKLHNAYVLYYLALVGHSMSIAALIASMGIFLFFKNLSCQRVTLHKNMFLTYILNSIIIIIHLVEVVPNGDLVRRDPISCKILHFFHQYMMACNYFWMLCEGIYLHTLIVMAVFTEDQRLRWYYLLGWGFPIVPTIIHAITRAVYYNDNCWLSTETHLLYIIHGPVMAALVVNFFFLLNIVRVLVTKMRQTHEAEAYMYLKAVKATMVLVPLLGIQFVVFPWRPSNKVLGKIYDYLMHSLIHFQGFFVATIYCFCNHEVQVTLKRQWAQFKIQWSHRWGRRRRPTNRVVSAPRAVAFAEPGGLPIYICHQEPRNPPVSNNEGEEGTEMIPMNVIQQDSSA

[2] = molecular target: T2, rat amylin receptor (rat calcitonin receptor + rat RAMP 3) (rat, UniProt P32214 25-516; Q9JJ73 23-147); test: SPA competition with 125I-rat amylin, membranes of BHK cells with rat calcitonin receptor + rat RAMP3 (Assay VI)
T2 construct: whole, on cells; Used as membranes prepared from the transfected cells; also called rAmylin-R; rat amylin 3(a) receptor
T2 sequence (looked up) 1: T1 sequence (looked up)
T2 sequence (looked up) 2: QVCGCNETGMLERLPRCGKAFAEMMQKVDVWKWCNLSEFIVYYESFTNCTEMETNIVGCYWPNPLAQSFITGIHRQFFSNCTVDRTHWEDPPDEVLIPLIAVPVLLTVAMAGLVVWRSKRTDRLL

[3] = molecular target: T3, human calcitonin receptor (human, UniProt P30988 25-474); test: ratio IC50 human calcitonin receptor / IC50 human amylin receptor (Assays VII and V)
T3 construct: whole, on cells; Used as membranes prepared from the transfected cells (Assay VII); also called hCTR; hCT
T3 sequence (looked up): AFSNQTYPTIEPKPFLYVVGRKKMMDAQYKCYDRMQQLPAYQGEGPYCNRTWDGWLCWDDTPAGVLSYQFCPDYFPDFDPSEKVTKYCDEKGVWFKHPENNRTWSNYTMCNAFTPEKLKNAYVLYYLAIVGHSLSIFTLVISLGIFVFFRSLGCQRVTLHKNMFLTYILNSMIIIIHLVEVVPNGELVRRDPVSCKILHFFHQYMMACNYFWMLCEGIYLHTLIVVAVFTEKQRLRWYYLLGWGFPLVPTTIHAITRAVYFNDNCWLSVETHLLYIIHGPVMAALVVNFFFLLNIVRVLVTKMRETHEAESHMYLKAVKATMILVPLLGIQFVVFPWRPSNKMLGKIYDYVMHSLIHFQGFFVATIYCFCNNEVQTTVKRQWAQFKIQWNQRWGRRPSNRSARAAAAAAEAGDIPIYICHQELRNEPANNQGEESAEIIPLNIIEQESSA
In short: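 IC₅₀ values were derived by one-site competition analysis of SPA counts. Cell membranes (35 ng/μL) with SPA beads were incubated with test compounds for 120 min at 25° C in Hepes buffer, pH 7.4, containing CaCl2, MgCl₂, OA and Tween20.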

rat calcitonin receptor [4] = molecular target: T1, rat calcitonin receptor; test: SPA competition with 125I-calcitonin, membranes of BHK cells with rat calcitonin receptor (Assay VIII)

Ratio rCT/rAmylin binding (rat calcitonin receptor [1]): 14.3
IC50 [2]: 0.514 nM
Ratio hCT/hAmylin binding [3]: 2.3
IC50 (rat calcitonin receptor [4]): 7.35 nM
B1: N^α1-[(4S)-4-carboxy-4-(19-carboxynonadecanoylamino)butanoyl]-[Glu14,Arg17,Pro21,Pro27,Pro29]-h-amylin (peptide)
peptide: {C20 diacid-γGlu}-KCNTATCATQRLAEFLRHSSPNFGAIPSPTNVGSNTY-NH2
modifications: disulfide 2-7
SMILES: CC[C@H](C)[C@H](NC(=O)[C@H](C)NC(=O)CNC(=O)[C@H](Cc1ccccc1)NC(=O)[C@H](CC(N)=O)NC(=O)[C@@H]1CCCN1C(=O)[C@H](CO)NC(=O)[C@H](CO)NC(=O)[C@H](Cc1c[nH]cn1)NC(=O)[C@H](CCCNC(=N)N)NC(=O)[C@H](CC(C)C)NC(=O)[C@H](Cc1ccccc1)NC(=O)[C@H](CCC(=O)O)NC(=O)[C@H](C)NC(=O)[C@H](CC(C)C)NC(=O)[C@H](CCCNC(=N)N)NC(=O)[C@H](CCC(N)=O)NC(=O)[C@@H](NC(=O)[C@H](C)NC(=O)[C@@H]1CSSC[C@H](NC(=O)[C@H](CCCCN)NC(=O)CC[C@H](NC(=O)CCCCCCCCCCCCCCCCCCC(=O)O)C(=O)O)C(=O)N[C@@H](CC(N)=O)C(=O)N[C@@H]([C@@H](C)O)C(=O)N[C@@H](C)C(=O)N[C@@H]([C@@H](C)O)C(=O)N1)[C@@H](C)O)C(=O)N1CCC[C@H]1C(=O)N[C@@H](CO)C(=O)N1CCC[C@H]1C(=O)N[C@H](C(=O)N[C@@H](CC(N)=O)C(=O)N[C@H](C(=O)NCC(=O)N[C@@H](CO)C(=O)N[C@@H](CC(N)=O)C(=O)N[C@H](C(=O)N[C@@H](Cc1ccc(O)cc1)C(N)=O)[C@@H](C)O)C(C)C)[C@@H](C)O
notes: Derivative of human amylin; also called compound 37

Ratio rCT/rAmylin binding (rat calcitonin receptor [1]): 12.6
IC50 [2]: 2.29 nM
Ratio hCT/hAmylin binding [3]: 3.9
IC50 (rat calcitonin receptor [4]): 28.9 nM
B2: N^α1-[(4S)-4-carboxy-4-(19-carboxynonadecanoylamino)butanoyl]-[Glu14,Arg17,Pro21,Pro28,Glu35]-h-amylin (peptide)
peptide: {C20 diacid-γGlu}-KCNTATCATQRLAEFLRHSSPNFGAILPSTNVGSETY-NH2
modifications: disulfide 2-7
SMILES: CC[C@H](C)[C@H](NC(=O)[C@H](C)NC(=O)CNC(=O)[C@H](Cc1ccccc1)NC(=O)[C@H](CC(N)=O)NC(=O)[C@@H]1CCCN1C(=O)[C@H](CO)NC(=O)[C@H](CO)NC(=O)[C@H](Cc1c[nH]cn1)NC(=O)[C@H](CCCNC(=N)N)NC(=O)[C@H](CC(C)C)NC(=O)[C@H](Cc1ccccc1)NC(=O)[C@H](CCC(=O)O)NC(=O)[C@H](C)NC(=O)[C@H](CC(C)C)NC(=O)[C@H](CCCNC(=N)N)NC(=O)[C@H](CCC(N)=O)NC(=O)[C@@H](NC(=O)[C@H](C)NC(=O)[C@@H]1CSSC[C@H](NC(=O)[C@H](CCCCN)NC(=O)CC[C@H](NC(=O)CCCCCCCCCCCCCCCCCCC(=O)O)C(=O)O)C(=O)N[C@@H](CC(N)=O)C(=O)N[C@@H]([C@@H](C)O)C(=O)N[C@@H](C)C(=O)N[C@@H]([C@@H](C)O)C(=O)N1)[C@@H](C)O)C(=O)N[C@@H](CC(C)C)C(=O)N1CCC[C@H]1C(=O)N[C@@H](CO)C(=O)N[C@H](C(=O)N[C@@H](CC(N)=O)C(=O)N[C@H](C(=O)NCC(=O)N[C@@H](CO)C(=O)N[C@@H](CCC(=O)O)C(=O)N[C@H](C(=O)N[C@@H](Cc1ccc(O)cc1)C(N)=O)[C@@H](C)O)C(C)C)[C@@H](C)O
notes: Derivative of human amylin; also called compound 33

Ratio rCT/rAmylin binding (rat calcitonin receptor [1]): 34
IC50 [2]: 0.176 nM
Ratio hCT/hAmylin binding [3]: 10.9
IC50 (rat calcitonin receptor [4]): 5.98 nM
B3: N^α1-[(4S)-4-carboxy-4-(19-carboxynonadecanoylamino)butanoyl]-[Glu14,Arg17,Pro21,Pro27,Pro34]-h-amylin (peptide)
peptide: {C20 diacid-γGlu}-KCNTATCATQRLAEFLRHSSPNFGAIPSSTNVGPNTY-NH2
modifications: disulfide 2-7
SMILES: CC[C@H](C)[C@H](NC(=O)[C@H](C)NC(=O)CNC(=O)[C@H](Cc1ccccc1)NC(=O)[C@H](CC(N)=O)NC(=O)[C@@H]1CCCN1C(=O)[C@H](CO)NC(=O)[C@H](CO)NC(=O)[C@H](Cc1c[nH]cn1)NC(=O)[C@H](CCCNC(=N)N)NC(=O)[C@H](CC(C)C)NC(=O)[C@H](Cc1ccccc1)NC(=O)[C@H](CCC(=O)O)NC(=O)[C@H](C)NC(=O)[C@H](CC(C)C)NC(=O)[C@H](CCCNC(=N)N)NC(=O)[C@H](CCC(N)=O)NC(=O)[C@@H](NC(=O)[C@H](C)NC(=O)[C@@H]1CSSC[C@H](NC(=O)[C@H](CCCCN)NC(=O)CC[C@H](NC(=O)CCCCCCCCCCCCCCCCCCC(=O)O)C(=O)O)C(=O)N[C@@H](CC(N)=O)C(=O)N[C@@H]([C@@H](C)O)C(=O)N[C@@H](C)C(=O)N[C@@H]([C@@H](C)O)C(=O)N1)[C@@H](C)O)C(=O)N1CCC[C@H]1C(=O)N[C@@H](CO)C(=O)N[C@@H](CO)C(=O)N[C@H](C(=O)N[C@@H](CC(N)=O)C(=O)N[C@H](C(=O)NCC(=O)N1CCC[C@H]1C(=O)N[C@@H](CC(N)=O)C(=O)N[C@H](C(=O)N[C@@H](Cc1ccc(O)cc1)C(N)=O)[C@@H](C)O)C(C)C)[C@@H](C)O
notes: Derivative of human amylin; also called compound 32

Ratio rCT/rAmylin binding (rat calcitonin receptor [1]): 42.8
IC50 [2]: 0.619 nM
Ratio hCT/hAmylin binding [3]: 16
IC50 (rat calcitonin receptor [4]): 26.5 nM
B4: N^α1-[(4S)-4-carboxy-4-(19-carboxynonadecanoylamino)butanoyl]-[Glu14,Arg17,Pro21,Pro27,Pro31]-h-amylin (peptide)
peptide: {C20 diacid-γGlu}-KCNTATCATQRLAEFLRHSSPNFGAIPSSTPVGSNTY-NH2
modifications: disulfide 2-7
SMILES: CC[C@H](C)[C@H](NC(=O)[C@H](C)NC(=O)CNC(=O)[C@H](Cc1ccccc1)NC(=O)[C@H](CC(N)=O)NC(=O)[C@@H]1CCCN1C(=O)[C@H](CO)NC(=O)[C@H](CO)NC(=O)[C@H](Cc1c[nH]cn1)NC(=O)[C@H](CCCNC(=N)N)NC(=O)[C@H](CC(C)C)NC(=O)[C@H](Cc1ccccc1)NC(=O)[C@H](CCC(=O)O)NC(=O)[C@H](C)NC(=O)[C@H](CC(C)C)NC(=O)[C@H](CCCNC(=N)N)NC(=O)[C@H](CCC(N)=O)NC(=O)[C@@H](NC(=O)[C@H](C)NC(=O)[C@@H]1CSSC[C@H](NC(=O)[C@H](CCCCN)NC(=O)CC[C@H](NC(=O)CCCCCCCCCCCCCCCCCCC(=O)O)C(=O)O)C(=O)N[C@@H](CC(N)=O)C(=O)N[C@@H]([C@@H](C)O)C(=O)N[C@@H](C)C(=O)N[C@@H]([C@@H](C)O)C(=O)N1)[C@@H](C)O)C(=O)N1CCC[C@H]1C(=O)N[C@@H](CO)C(=O)N[C@@H](CO)C(=O)N[C@H](C(=O)N1CCC[C@H]1C(=O)N[C@H](C(=O)NCC(=O)N[C@@H](CO)C(=O)N[C@@H](CC(N)=O)C(=O)N[C@H](C(=O)N[C@@H](Cc1ccc(O)cc1)C(N)=O)[C@@H](C)O)C(C)C)[C@@H](C)O
notes: Derivative of human amylin; also called compound 31

Ratio rCT/rAmylin binding (rat calcitonin receptor [1]): 36.1
IC50 [2]: 3.14 nM
Ratio hCT/hAmylin binding [3]: 23.6
IC50 (rat calcitonin receptor [4]): 114 nM
B5: N^α1-[(4S)-4-carboxy-4-(19-carboxynonadecanoylamino)butanoyl]-[His14,Arg17,Pro21,Pro27,Glu35]-h-amylin (peptide)
peptide: {C20 diacid-γGlu}-KCNTATCATQRLAHFLRHSSPNFGAIPSSTNVGSETY-NH2
modifications: disulfide 2-7
SMILES: CC[C@H](C)[C@H](NC(=O)[C@H](C)NC(=O)CNC(=O)[C@H](Cc1ccccc1)NC(=O)[C@H](CC(N)=O)NC(=O)[C@@H]1CCCN1C(=O)[C@H](CO)NC(=O)[C@H](CO)NC(=O)[C@H](Cc1c[nH]cn1)NC(=O)[C@H](CCCNC(=N)N)NC(=O)[C@H](CC(C)C)NC(=O)[C@H](Cc1ccccc1)NC(=O)[C@H](Cc1c[nH]cn1)NC(=O)[C@H](C)NC(=O)[C@H](CC(C)C)NC(=O)[C@H](CCCNC(=N)N)NC(=O)[C@H](CCC(N)=O)NC(=O)[C@@H](NC(=O)[C@H](C)NC(=O)[C@@H]1CSSC[C@H](NC(=O)[C@H](CCCCN)NC(=O)CC[C@H](NC(=O)CCCCCCCCCCCCCCCCCCC(=O)O)C(=O)O)C(=O)N[C@@H](CC(N)=O)C(=O)N[C@@H]([C@@H](C)O)C(=O)N[C@@H](C)C(=O)N[C@@H]([C@@H](C)O)C(=O)N1)[C@@H](C)O)C(=O)N1CCC[C@H]1C(=O)N[C@@H](CO)C(=O)N[C@@H](CO)C(=O)N[C@H](C(=O)N[C@@H](CC(N)=O)C(=O)N[C@H](C(=O)NCC(=O)N[C@@H](CO)C(=O)N[C@@H](CCC(=O)O)C(=O)N[C@H](C(=O)N[C@@H](Cc1ccc(O)cc1)C(N)=O)[C@@H](C)O)C(C)C)[C@@H](C)O
notes: Derivative of human amylin; also called compound 30
